One data set relates to IL-8. Description: Micro-array analysis of chemokine binding peptides: IL-8. As to conditions: limit = start of the upper 75% of that peptide's response range. In a few lines:
(§1)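 Chemokines printed at 25 and 50 μg/ml on protein microarray slides, blocked, then probed 1 h at RT with peptide-displaying recombinant phage (10^7 pfu/μl). Bound phage detected with mouse anti-M13 then Cy3 anti-mouse IgG. Cy3 fluorescence scanned, reported as relative fluorescence versus chemokine concentration.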

The next data set has as its target T1, Mig (Homo sapiens, UniProt Q07325).
T1 construct: purchased 300-26
T1 sequence (Q07325 23-125): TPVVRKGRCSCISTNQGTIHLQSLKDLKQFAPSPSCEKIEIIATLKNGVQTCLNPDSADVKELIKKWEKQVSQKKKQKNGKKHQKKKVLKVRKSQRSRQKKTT
The data set can be described thus: Micro-array analysis of chemokine binding peptides: Mig. As to conditions: limit = start of the upper 75% of that peptide's response range. In a few lines: as §1

A further data set addresses T2, I-309 (Homo sapiens, UniProt P22362).
T2 construct: purchased 300-37
T2 sequence (P22362 24-96): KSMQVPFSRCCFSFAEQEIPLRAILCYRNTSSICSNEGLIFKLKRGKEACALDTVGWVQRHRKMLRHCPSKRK
The data set can be described thus: Micro-array analysis of chemokine binding peptides: I-309. As to conditions: limit = start of the upper 75% of that peptide's response range. In a few lines: as §1

For the next data set, the target named is T3, MCP-1 (Homo sapiens, UniProt P13500).
T3 construct: purchased 300-04
Description: Micro-array analysis of chemokine binding peptides: MCP-1. As to conditions: limit = start of the upper 75% of that peptide's response range. In a few lines: as §1

For the next data set, the target named is T4, MCP-4 (Homo sapiens, UniProt Q99616).
T4 construct: purchased 300-24
The data set can be described thus: Micro-array analysis of chemokine binding peptides: MCP-4. As to conditions: limit = start of the upper 75% of that peptide's response range. Summed up:
as §1

Another data set concerns the target T5, RANTES (Homo sapiens, UniProt P13501).
T5 construct: purchased 300-06
T5 sequence (P13501 24-91): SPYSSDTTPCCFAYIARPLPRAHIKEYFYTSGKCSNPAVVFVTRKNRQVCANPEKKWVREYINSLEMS
Description: Micro-array analysis of chemokine binding peptides: RANTES. Summed up:
as §1

A further data set deals with T6, Eotaxin (Homo sapiens, UniProt P51671).
T6 construct: purchased 300-21
The data set can be described thus: Micro-array analysis of chemokine binding peptides: Eotaxin. As to conditions: limit = start of the upper 75% of that peptide's response range. In a few lines: as §1

The next data set has as its target T7, Eotaxin 3 (Homo sapiens, UniProt Q9Y258).
T7 construct: purchased 300-48
T7 sequence (Q9Y258 24-94): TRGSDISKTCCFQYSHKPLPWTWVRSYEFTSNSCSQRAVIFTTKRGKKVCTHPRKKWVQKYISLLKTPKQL
The data set can be described thus: Micro-array analysis of chemokine binding peptides: Eotaxin 3. As to conditions: limit = start of the upper 75% of that peptide's response range. Summed up:
as §1

The next data set deals with T8, SDF1-α (Homo sapiens, UniProt P48061).
T8 construct: purchased 300-28a
The data set can be described thus: Micro-array analysis of chemokine binding peptides: SDF1-α. In a few lines: as §1

In the next data set the target is T9, SDF1-β (Homo sapiens, UniProt P48061).
T9 construct: purchased 300-28b
The data set can be described thus: Micro-array analysis of chemokine binding peptides: SDF1-β. In a few lines: as §1

A further data set concerns the target T10, TECK (Homo sapiens, UniProt O15444).
T10 construct: purchased 300-45
T10 sequence (O15444 24-150): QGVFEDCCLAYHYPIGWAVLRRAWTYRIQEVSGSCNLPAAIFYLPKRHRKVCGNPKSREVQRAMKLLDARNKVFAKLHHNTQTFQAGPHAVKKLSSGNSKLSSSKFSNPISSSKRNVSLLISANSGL
The data set can be described thus: Micro-array analysis of chemokine binding peptides: TECK. Summed up: as §1

The next data set concerns the target T11, Fractalkine (Homo sapiens, UniProt P78423).
T11 construct: purchased 300-31
T11 sequence (P78423 25-100 limits assumed): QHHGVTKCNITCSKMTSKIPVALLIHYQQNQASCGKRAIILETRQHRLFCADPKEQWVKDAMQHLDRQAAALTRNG
The data set can be described thus: Micro-array analysis of chemokine binding peptides: Fractalkine. Summed up:
as §1

The next data set concerns the target T12, MIP3-α (Homo sapiens, UniProt P78556).
T12 construct: purchased 300-29A
Description: Micro-array analysis of chemokine binding peptides: MIP3-α. The procedure: (1) Printing: Chemokine (CK) solution (in water) was serially diluted with Print Reagent (GenTel BioSurfaces USA) to final concentrations of 50 μg and 25 μg/ml. BSA/BSA-Biotin control solutions (in water) were diluted with Print Reagent to 100 μg/ml. Amplified stock of M13 phage control (M13KEgIII Cloning Vector, New England Biolabs, Cat.No.E8101S) was stored in Tris Buffered Saline (TBS; pH7.5, 4° C.) and diluted with Print Reagent to the working titre (10^8 pfu/μl). An automated spotting robot (16 pin print tool, 0.4 mm head; BioRobotics, UK) was used to print the CK/BSA control/M13 control, 5 repeats per sample (CK 25 μg/ml and 50 μg/ml; BSA 100 μg/ml; M13 20 μl), on PATH Protein Microarray Slides (GenTel, Prod.No. 2-1005/-1025) at […], and 50-70% relative humidity. Printed micro-array slides were stored at Room Temperature (RT) or 4° C. for at least 24 h before use. […]
(§2) (11) Analysis: Quantitative analysis of micro-array was performed by the SpotReader program of Niles Scientific (USA) and presented as Relative Fluorescence (RF) as a function of CK concentration. Micro-array readout (Cy3 fluorescence) was quantified to determine the relative binding affinities of a CBP for the CKs and by inference, the specificity of the CBP for binding to a CK.

A further data set addresses T13, Exodus-2 (Homo sapiens, UniProt O00585).
T13 construct: purchased 300-35
T13 sequence (O00585 24-134): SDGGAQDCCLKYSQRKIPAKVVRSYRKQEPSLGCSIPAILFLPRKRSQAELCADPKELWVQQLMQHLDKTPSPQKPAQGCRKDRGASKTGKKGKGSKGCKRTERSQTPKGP
Description: Micro-array analysis of chemokine binding peptides: Exodus-2. In a few lines: as §1

In the next data set the test system is SDF1. Description: Micro-array analysis of chemokine binding peptides: SDF1 (isoform not given). The procedure: (1) Printing: Chemokine (CK) solution (in water) was serially diluted with Print Reagent (GenTel BioSurfaces USA) to final concentrations of 50 μg and 25 μg/ml. BSA/BSA-Biotin control solutions (in water) were diluted with Print Reagent to 100 μg/ml. Amplified stock of M13 phage control (M13KEgIII Cloning Vector, New England Biolabs, Cat.No.E8101S) was stored in Tris Buffered Saline (TBS; pH7.5, 4° C.) and diluted with Print Reagent to the working titre (10^8 pfu/μl). An automated spotting robot (16 pin print tool, 0.4 mm head; BioRobotics, UK) was used to print the CK/BSA control/M13 control, 5 repeats per sample (CK 25 μg/ml and 50 μg/ml; BSA 100 μg/ml; M13 20 μl), on PATH Protein Microarray Slides (GenTel, Prod.No. 2-1005/-1025) at […], and 50-70% relative humidity. Printed micro-array slides were stored at Room Temperature (RT) or 4° C. for at least 24 h before use.
(2) Blocking: Block Buffer (500 μl/partition; PATHblock, GenTel, Prod.No. 2-1014) was applied to the slide for 1 hour at room temp (RT). After removal of Block Buffer, the slide was air dried for 25 minutes;
(3) Phage Presented Peptide Binding: Amplified recombinant phage stock was stored in TBS and diluted with Wash Buffer to working titer (10^7 pfu/μl). Recombinant phage suspension (300 μl) was applied per partition and incubated at RT for 1 hour with gentle agitation.
(4) First Washing: The slides were washed twice with Wash Buffer 300 μl/partition).
(5) Primary Antibody (Ab) Labeling: The slides were incubated with the Primary Ab (1 mg/ml diluted ×2500 (Wash Reagent), 300 μl; Mouse Anti-M13 monoclonal Ab; Amersham Biosciences, UK; Product Code 27-9420-01) for 45 minutes at RT.
(6) Second Washing: The slides were washed twice with Wash Buffer (300 μl/partition).
(7) Secondary Ab Labeling: The slides were incubated with Secondary Ab (1.5 mg/ml diluted ×5000 (Wash Reagent), 300 μl; Cy3-conjugated AffiniPure Goat Anti-Mouse IgG; Jackson ImmunoReserch Labs, USA; Product Code 115-165-062).
(8) Third Washing: The slides were washed twice with Wash Buffer (300 μl/partition).
(9) Rinse: the slides were rinsed twice with Rinse Buffer (PATHrinse, GenTel, Prod.No. 2-1018) then dried well.
(10) Scanning: The peptide-bound, labeled slide was scanned (Laser Intensity 80%, Gain 80%, Resolution 10 μm) with a ScanArray Life Scanner (Packard BioChip Technologies, USA).
as §2

For data set [1], the system named is healthy, non-disease-induced rats. The data set can be described thus: Effect on healthy, non-disease-induced rats. As to conditions: 30 ug/injection IP on 12 consecutive days. The data set is classed as in vivo, rat. The protocol:
P15 was injected IP (30 ug/injection) on 12 consecutive days to determine if this anti-inflammatory peptide had any effect at a therapeutic dose on healthy, non-disease-induced rats.

Entries after “also recorded” stand apart in the source; their conditions may differ. Read-outs that look alike come from different tables or passages of the source. Ends that are not written are not given here.

T4 sequence (Q99616 17-98): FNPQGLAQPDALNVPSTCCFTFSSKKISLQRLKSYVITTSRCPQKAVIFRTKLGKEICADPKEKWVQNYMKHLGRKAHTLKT
T6 sequence (P51671 24-97): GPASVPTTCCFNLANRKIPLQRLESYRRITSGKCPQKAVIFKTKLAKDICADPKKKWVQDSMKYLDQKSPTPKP
T12 sequence (P78556 27-96): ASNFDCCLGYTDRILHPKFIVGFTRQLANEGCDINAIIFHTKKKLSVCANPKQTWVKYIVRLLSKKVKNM
Chain of IL-8 (P10145 28-99 limits assumed): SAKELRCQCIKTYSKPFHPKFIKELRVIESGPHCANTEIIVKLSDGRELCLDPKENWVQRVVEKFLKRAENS
T8 sequence (P48061 22-89 limits assumed): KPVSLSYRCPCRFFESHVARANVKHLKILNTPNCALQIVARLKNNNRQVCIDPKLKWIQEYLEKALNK
Chain of SDF1 (P48061 22-89 limits assumed): as above
T3 sequence (P13500 24-99): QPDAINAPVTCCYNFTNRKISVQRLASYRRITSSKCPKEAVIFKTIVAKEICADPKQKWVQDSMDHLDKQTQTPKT
T9 sequence (P48061 22-93): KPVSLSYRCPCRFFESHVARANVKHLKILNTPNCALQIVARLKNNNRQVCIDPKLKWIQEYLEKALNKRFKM

On to LFGNDCE [CBP5], for which the “binding to IL-8 with relatively high affinity (Relative Fluorescence Units)” value in the data set with IL-8 is listed as > 2,500 RFU. Also, the “binding to Mig with relatively high affinity (Relative Fluorescence Units)” value in the data set with Mig is on record as > 2,500 RFU. The “binding to I-309 with relatively high affinity (Relative Fluorescence Units)” value in the data set with I-309 is on record as > 2,500 RFU. Besides, the “binding to MCP-1 with relatively high affinity (Relative Fluorescence Units)” value with MCP-1 was > 2,500 RFU. Further, the “binding to MCP-4 with relatively high affinity (Relative Fluorescence Units)” value with MCP-4 is > 2,500 RFU. Besides, in the data set with RANTES, the “binding to RANTES, stated in words” value is “bound specifically and differentially”. Also, the “binding to RANTES with relatively high affinity (Relative Fluorescence Units)” value with RANTES (limit = start of the upper 75% of that peptide's response range) is reported as > 2,500 RFU. Moreover, in the data set with Eotaxin, the “binding to Eotaxin with relatively high affinity (Relative Fluorescence Units)” value is recorded as > 2,500 RFU. For the same substance, in the data set with Eotaxin 3, the “binding to Eotaxin 3 with relatively high affinity (Relative Fluorescence Units)” value is on record as > 2,500 RFU. Besides, the “binding to SDF1-α, stated in words” value in the data set with SDF1-α was “bound”. For the same substance, the “binding to SDF1-β, stated in words” value in the data set with SDF1-β was “bound”. Also, the “binding to TECK, stated in words” value with TECK is “bound”. In addition, the “binding to Fractalkine, stated in words” value with Fractalkine was “bound”; in the data set with Fractalkine (listed as P5) it was “bound specifically and differentially”. Moreover, the “binding to MIP3-α, stated in words” value with MIP3-α is “bound”. The “binding to Exodus-2, stated in words” value with Exodus-2 is on record as “bound”. The “binding to SDF1 (isoform not given), stated in words” value in the data set with SDF1 was “bound specifically and differentially”.

Turning to WVFGSGLCK [Ph-p15, WVFGSGLCK], the “physiological or behavioral effect on healthy rats” value in data set [1] is recorded as “no apparent effect; also recorded: no obvious physiological or behavioral effect”.

(Values after patent US12072338B2, “Pharmaceutical peptides for the treatment of inflammatory diseases” (PROTAGONISTS LTD., priority 2007, dated 2024).)
